Where two headings read alike, the source gives them in different places.
Tests used:
[1] = Stability analysis in plasma, liver and kidney of mice, ex vivo TLC; design: species or system mouse; conditions: γ-counter, mean ± SD, n = 3 mice; for Fraction ratio of intact radiotracer, Plasma (%): B16-F1-bearing C57BL6 mice; for Fraction ratio of intact radiotracer, Plasma (%) / Fraction ratio of intact radiotracer, Liver (%): reverse-phase TLC; for Fraction ratio of intact radiotracer, Liver (%): liver homogenate
Method: All animal studies were conducted following approval by the Animal Care Committee of Kanazawa University (AP-122339). Fasted B16-F1-bearing C57BL6 male mice (5 weeks old) were administered ^111In-labeled 3-arm or 4-arm DOTA-α-MSH (3.7 MBq/mouse) via the tail vein. At 10, 30, 60, 120, and 180 min after injection, mice (n = 3 per time point) were euthanized with isoflurane, and blood and liver were collected and analyzed with thin layer chromatography (TLC). Briefly, 300 uL blood in a heparinized tube was centrifuged at 18,000 ×g at 4°C for 5 min. A total of 30 uL perchloric acid was added to the supernatant, which was centrifuged again, after which the final supernatant was spotted onto the TLC plate as plasma. Krebs-Ringer phosphate buffer (pH 7.4) was added to the liver samples, followed by homogenization with an ultrasonic homogenizer (SONIFIER250, Branson, MO, USA). Then, ethanol was added to the homogenate to remove proteins, and the sample was centrifuged at 18,000 ×g at 4°C for 5 min. The final supernatant was spotted onto the reverse-phase TLC plate, and the TLC spots were developed using 50 mM EDTA (pH 4–5) solvents. After development and complete drying, the TLC plates were cut into 21 fractions, and the radioactivity associated with each fraction was quantified using a γ-ray counter. The fraction ratios of ^111In^3+, ^111In-labeled 3-arm or 4-arm DOTA-α-MSH, and all metabolites were calculated by dividing the radioactive counts for each fraction by the total radioactivity counts.

[2] = Biological distribution in B16-F1 melanoma-bearing mice; format: in vivo, mouse; conditions: male, C57BL6, mouse, in vivo, iv, 37 kBq/mouse, total radioactivity, mean, n = 3 mice; for tissue uptake at 10 min / tissue uptake dose at 10 min: 10 min after i.v. 37 kBq/mouse; for tissue uptake at 0.5 h / tissue uptake dose at 0.5 h: 30 min after i.v. 37 kBq/mouse; for tissue uptake at 1 h / tissue uptake dose at 1 h: 60 min after i.v. 37 kBq/mouse; for tissue uptake at 2 h / tissue uptake dose at 2 h: 120 min after i.v. 37 kBq/mouse; for tissue uptake at 3 h / tissue uptake dose at 3 h: 180 min after i.v. 37 kBq/mouse
Method: (§1) C57BL6 male mice (5 weeks old) were transplanted with B16-F1 cells (5 × 10^5 cells/100 μL) into the thigh of the mice. […] The mice were housed and continuously monitored each day for 2 weeks in a 12-hour light/12-hour dark cycle with free access to food and water. The tumor size reached 8.7 ± 2.8 mm at 2 weeks after transplant of cells. Two mice with tumor sizes of 13 and 15 mm were excluded from our experiments. Mice with a tumor size <10 mm were fasted with no food overnight with water supplied ad libitum before experiments.
(§2) For biological distribution studies, B16-F1-bearing mice were administered ^111In-labeled 3-arm or 4-arm DOTA-α-MSH via the tail vein (37 kBq/mouse). At 10, 30, 60, 120, and 180 min after injection, the mice were euthanized under isoflurane (n = 3 per time point), and the following tissues were collected: brain, lung, heart, stomach, liver, small intestine, large intestine, kidney, blood, muscle, and B16-F1 melanoma. Tissues were weighed, and radioactivity was quantified using an automated γ-ray counter to calculate the percent injected dose (%ID) or percent injected dose per gram of tissue (%ID/g).
(§3) For SPECT imaging, ^111In-labeled 3-arm or 4-arm DOTA-α-MSH was injected into the tail vein of four B16-F1-bearing mice in total (37 MBq/mouse). For SPECT imaging, acquisition was started at 10 min after injection and continued every 10 min for 180 min. The data were reconstructed using the ordered subset expectation maximization method with 16 subsets and six iterations including no scatter and attenuation correction. The voxel size was set to 0.8×0.8×0.8 mm. Post-reconstruction smoothing filtering was applied using a 1.0-mm Gaussian filter. […] In these images, three to five regions of interest were placed over the kidney, muscle, and B16-F1 melanoma in which accumulation could be seen, and the time activity curve of each was obtained as the %ID/g.

[3] = system: B16-F1 melanoma-bearing mice; test: as above; format: in vivo, mouse; conditions: for Melanoma-to-blood ratio / Melanoma-to-kidney ratio / Melanoma-to-muscle ratio: mean ± SD, four mice
Method: as §1, §2, §3

[4] = 10 min after i.v. injection 3.7 MBq/mouse
[5] = 30 min after i.v. injection 3.7 MBq/mouse
[6] = 60 min after i.v. injection 3.7 MBq/mouse
[7] = 120 min after i.v. injection 3.7 MBq/mouse
[8] = 180 min after i.v. injection 3.7 MBq/mouse
[9] = read-out: Biological distribution, Blood
[10] = read-out: Biological distribution, Brain
[11] = read-out: Biological distribution, Heart
[12] = read-out: Biological distribution, Kidney
[13] = read-out: Biological distribution, Large intestine
[14] = read-out: Biological distribution, Liver
[15] = read-out: Biological distribution, Lung
[16] = read-out: Biological distribution, Muscle
[17] = read-out: Biological distribution, Small intestine
[18] = read-out: Biological distribution, Stomach
[19] = B16-F1 melanoma, read-out: Biological distribution, Melanoma
[20] = average over all acquisition time points

CSCC[C@H](NC(=O)[C@H](CO)NC(=O)[C@H](Cc1ccc(O)cc1)NC(=O)[C@H](CO)NC(C)=O)C(=O)N[C@@H](CCC(=O)O)C(=O)N[C@@H](Cc1c[nH]cn1)C(=O)N[C@@H](Cc1ccccc1)C(=O)N[C@@H](CCCNC(=N)N)C(=O)N[C@@H](Cc1c[nH]c2ccccc12)C(=O)NCC(=O)N[C@@H](CCCCNC(=S)Nc1ccc(C[C@H]2CN(CC(=O)O)CCN(CC(=O)O)CCN(CC(=O)O)CCN2CC(=O)O)cc1)C(=O)N1CCC[C@H]1C(=O)N[C@H](C(=O)O)C(C)C [^111In-labeled 4-arm DOTA-α-MSH, metal not drawn]
Fraction ratio of intact radiotracer, Plasma (%) [1, 4]: 96.0 ± 2.5%
Fraction ratio of intact radiotracer, Liver (%) [1, 4]: 95.1 ± 2.9%
Fraction ratio of intact radiotracer, Plasma (%) [1, 5]: 95.8 ± 2.6%
Fraction ratio of intact radiotracer, Kidney (%) ([1]; 30 min after i.v. injection 3.7 MBq/mouse, kidney, TLC): 95.8 ± 1.9%
Fraction ratio of intact radiotracer, Liver (%) [1, 5]: 94.9 ± 2.1%
Fraction ratio of intact radiotracer, Plasma (%) [1, 6]: 92.1 ± 2.1%
Fraction ratio of intact radiotracer, Liver (%) [1, 6]: 91.3 ± 3.2%
Fraction ratio of intact radiotracer, Plasma (%) [1, 7]: 84.2 ± 2.2%
Fraction ratio of intact radiotracer, Liver (%) [1, 7]: 78.6 ± 4.9%
Fraction ratio of intact radiotracer, Plasma (%) [1, 8]: 80.8 ± 2.3%
Fraction ratio of intact radiotracer, Liver (%) [1, 8]: 76.2 ± 4.1%
tissue uptake at 10 min [2, 9]: 4.03 %ID/g
tissue uptake at 10 min [2, 10]: 0.04 %ID/g
tissue uptake at 10 min [2, 11]: 0.55 %ID/g
tissue uptake at 10 min [2, 12]: 17.1 %ID/g
tissue uptake dose at 10 min [2, 13]: 0.03 %ID
tissue uptake at 10 min [2, 14]: 2.52 %ID/g
tissue uptake at 10 min [2, 15]: 0.42 %ID/g
tissue uptake at 10 min [2, 16]: 0.1 %ID/g
tissue uptake dose at 10 min [2, 17]: 0.05 %ID
tissue uptake dose at 10 min [2, 18]: 0.09 %ID
tissue uptake at 0.5 h [2, 9]: 2.02 %ID/g
tissue uptake at 0.5 h [2, 10]: 0.03 %ID/g
tissue uptake at 0.5 h [2, 11]: 0.46 %ID/g
tissue uptake at 0.5 h [2, 12]: 13.3 %ID/g
tissue uptake dose at 0.5 h [2, 13]: 0.03 %ID
tissue uptake at 0.5 h [2, 14]: 1.45 %ID/g
tissue uptake at 0.5 h [2, 15]: 0.52 %ID/g
tissue uptake at 0.5 h [2, 16]: 0.12 %ID/g
tissue uptake dose at 0.5 h [2, 17]: 0.04 %ID
tissue uptake dose at 0.5 h [2, 18]: 0.09 %ID
tissue uptake at 1 h [2, 9]: 1.01 %ID/g
tissue uptake at 1 h [2, 10]: 0.03 %ID/g
tissue uptake at 1 h [2, 11]: 0.38 %ID/g
tissue uptake at 1 h [2, 12]: 8.12 %ID/g
tissue uptake dose at 1 h [2, 13]: 0.04 %ID
tissue uptake at 1 h [2, 14]: 1.18 %ID/g
tissue uptake at 1 h [2, 15]: 0.22 %ID/g
tissue uptake at 1 h [2, 16]: 0.08 %ID/g
tissue uptake dose at 1 h [2, 17]: 0.03 %ID
tissue uptake dose at 1 h [2, 18]: 0.08 %ID
tissue uptake at 2 h [2, 9]: 0.11 %ID/g
tissue uptake at 2 h [2, 10]: 0.02 %ID/g
tissue uptake at 2 h [2, 11]: 0.14 %ID/g
tissue uptake at 2 h [2, 12]: 6.31 %ID/g
tissue uptake dose at 2 h [2, 13]: 0.03 %ID
tissue uptake at 2 h [2, 14]: 0.9 %ID/g
tissue uptake at 2 h [2, 15]: 0.13 %ID/g
tissue uptake at 2 h [2, 16]: 0.04 %ID/g
tissue uptake dose at 2 h [2, 17]: 0.02 %ID
tissue uptake dose at 2 h [2, 18]: 0.05 %ID
tissue uptake at 3 h [2, 9]: 0.03 %ID/g
tissue uptake at 3 h [2, 10]: 0.01 %ID/g
tissue uptake at 3 h [2, 11]: 0.05 %ID/g
tissue uptake at 3 h [2, 12]: 5.19 %ID/g
tissue uptake dose at 3 h [2, 13]: 0.03 %ID
tissue uptake at 3 h [2, 14]: 0.61 %ID/g
tissue uptake at 3 h [2, 15]: 0.06 %ID/g
tissue uptake at 3 h [2, 16]: 0.03 %ID/g
tissue uptake dose at 3 h [2, 17]: 0.02 %ID
tissue uptake dose at 3 h [2, 18]: 0.05 %ID
tissue uptake at 10 min [2, 19]: 2.22 %ID/g
tissue uptake at 0.5 h [2, 19]: 2.25 %ID/g
tissue uptake at 1 h [2, 19]: 3.34 %ID/g
tissue uptake at 2 h [2, 19]: 4.52 %ID/g
tissue uptake at 3 h [2, 19]: 4.83 %ID/g
Melanoma-to-blood ratio ([3]; 10 min after injection): 0.55 ± 0.14
Melanoma-to-kidney ratio ([3]; 10 min after injection): 0.13 ± 0.07
Melanoma-to-muscle ratio ([3]; 10 min after injection): 22.20 ± 3.35
Melanoma-to-blood ratio ([3]; 30 min after injection): 1.11 ± 0.28
Melanoma-to-kidney ratio ([3]; 30 min after injection): 0.17 ± 0.11
Melanoma-to-muscle ratio ([3]; 30 min after injection): 18.75 ± 4.45
Melanoma-to-blood ratio ([3]; 60 min after injection): 3.31 ± 0.35
Melanoma-to-kidney ratio ([3]; 60 min after injection): 0.41 ± 0.15
Melanoma-to-muscle ratio ([3]; 60 min after injection): 41.75 ± 6.38
Melanoma-to-blood ratio ([3]; 120 min after injection): 41.09 ± 4.78
Melanoma-to-kidney ratio ([3]; 120 min after injection): 0.72 ± 0.18
Melanoma-to-muscle ratio ([3]; 120 min after injection): 113.00 ± 7.33
Melanoma-to-blood ratio ([3]; 180 min after injection): 155.81 ± 12.93
Melanoma-to-kidney ratio ([3]; 180 min after injection): 0.93 ± 0.15
Melanoma-to-muscle ratio ([3]; 180 min after injection): 155.81
Melanoma-to-muscle ratio ([3]; 180 min after injection, listed as 4-arm DOTA-α-MSH): 155.81 ± 8.63
Higher average accumulation in B16-F1 melanoma than 111In-labeled 3-arm DOTA-α-MSH [3, 20]: 1.32 fold
Lower average accumulation in kidney than 111In-labeled 3-arm DOTA-α-MSH [3, 20]: 1.38 fold
